Patent publication US20230002466A1 (ELPIS BIOPHARMACEUTICALS, published 2023)
Changes are numbered by the printed parent chain.

T1: recombinant His-tagged human IL2Rβ (human, UniProt P14784 27-239)
T1 construct: also called hIL2Rβ; not shown: His tag
T1 sequence (looked up): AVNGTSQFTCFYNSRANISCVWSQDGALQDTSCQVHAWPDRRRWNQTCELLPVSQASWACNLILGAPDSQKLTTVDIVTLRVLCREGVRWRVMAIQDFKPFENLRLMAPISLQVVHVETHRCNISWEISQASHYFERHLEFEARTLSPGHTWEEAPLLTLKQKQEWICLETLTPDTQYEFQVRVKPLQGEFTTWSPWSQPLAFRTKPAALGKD

T2: human IL2Rα Fc fusion protein (human, UniProt P01589 22-213, limits assumed)
T2 construct: also called Recombinant Fc-tagged human IL2Rα; not shown: Fc
T2 sequence (looked up): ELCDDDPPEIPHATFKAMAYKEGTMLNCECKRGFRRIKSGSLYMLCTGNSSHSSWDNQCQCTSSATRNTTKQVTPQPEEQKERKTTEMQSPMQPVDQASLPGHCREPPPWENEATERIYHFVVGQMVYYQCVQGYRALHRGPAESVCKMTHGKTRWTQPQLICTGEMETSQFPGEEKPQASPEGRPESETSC

T3: human IL2Rβ Fc fusion protein (human, UniProt P14784 27-239)
T3 construct: also called Recombinant Fc-tagged human IL2Rβ; not shown: Fc
T3 sequence (looked up): T1 sequence (looked up)

T4: human IL2Rβ (human, UniProt P14784 27-239)
T4 construct: also called IL2β; CD122
T4 sequence (looked up): T1 sequence (looked up)

T5: human IL2Rα (human, UniProt P01589 22-213, limits assumed)
T5 construct: also called IL2α; CD25
T5 sequence (looked up): T2 sequence (looked up)

B1: EP214/EP215 (Fc fusion)
chain: APTSSSTKKTQLQLEHLLLDLQMILNGINNYKNPKLTEMLTFKFYMPKKATELKHLQCLEEELKPLEEVLNLAQSKNFHLTARDAVDNMRVIIQELKGSETTFMCEYADETATIVEFLNRWITFSQSIISTLTESKYGPPCPPCPAPEFEGAPSVFLFPPKPKDTLMISRTPEVTCVVVDVSQEDPEVQFNWYVDGVEVHNAKTKPREEQFQSTYRVVSVLTVLHQDWLNGKEYKCKVSNKGLPSSIEKTISKAKGQPREPQVYTLPPCQEEMTKNQVSLWCLVKGFYPSDIAVEWESNGQPENNYKTTPPVLDSDGSFFLYSALTVDKSRWQEGNVFSCSVMHEALHNHYTQKSLSLSLGK
Fc: ESKYGPPCPPCPAPEFEGAPSVFLFPPKPKDTLMISRTPEVTCVVVDVSQEDPEVQFNWYVDGVEVHNAKTKPREEQFQSTYRVVSVLTVLHQDWLNGKEYKCKVSNKGLPSSIEKTISKAKGQPREPQVCTLPPSQEEMTKNQVSLSCAVKGFYPSDIAVEWESNGQPENNYKTTPPVLDSDGSFKLVSRLTVDKSRWQEGNVFSCSVMHEALHNHYTQKSLSLSLGK
B2: EP003 (ligand)
chain: APTSSSTKKTQLQLEHLLLDLQMILNGINNYKNPKLTRMLTFKFYMPKKATELKHLQCLEEELKPLEEVLNLAQSKNFHLGVTDSISNAIVLARELKGSETTFMCEYADETATIVEFLNRWITFCQSIISTLT
notes: Produced in E. coli or mammalian cells; also called EP03; EP0003; not shown: C-terminal Flag and 6xHis tags
B3: EP119 (ligand)
chain: APTSSSTKKTQLQLEHLLLDLQMILNGINNYKNPKLTGMLTFKFSMPKKATELKHLQCLEEELKPLEEVLNLAQSKNFHLRPRDLISNINVIVLELKGSETTFMCEYADETATIVEFLNRWITFSQSIISTLT
B4: EP004 (ligand)
chain: B2 chain with G81C, V82P, S85T, S87E, A89I, I90T, A93I, R94Q
notes: Produced in E. coli or mammalian cells; not shown: C-terminal Flag and 6xHis tags
B5: EP122 (ligand)
chain: B3 chain with G38V, S45P
B6: EP105 (ligand)
chain: B3 chain with K35E, G38I, F42P, S45Y
B7: EP108 (ligand)
chain: B3 chain with G38R, F42H, S45V
B8: EP123 (ligand)
chain: B3 chain with G38V, S45F
B9: EP115 (ligand)
chain: B3 chain with I28L, G38S
B10: EP113 (ligand)
chain: B3 chain with G38Y, F42R, S45Y
B11: EP126 (ligand)
chain: B3 chain with G38N
B12: EP226 (ligand)
chain: APTSSSTKKTQLQLEHLLLDLQMILNGINNYKNPKLTRMLTAKFYMPKKATELKHLQCLEEELKPLEEVLNLAQSKNFHLGVTDSISNAIVLARELKGSETTFMCEYADETATIVEFLNRWITFSQSIISTLTGSHHHHHH

Tests used:
[1] = biological target: T1, recombinant His-tagged human IL2Rβ; experiment: SPR (Biacore T200): Fc fusion captured on anti-hFc chip, IL2Rβ-HIS injected in 2-fold dilutions from 100 nM
Experimental: Binding kinetics of monovalent IL2Rβ Fc fusion proteins have been analyzed by SPR technology with Biacore T200. Briefly, anti-hFc antibody was immobilized on flow cell 1 and 2. For each cycle, 1 ug/mL of IL2 Fc fusion protein was captured for 60 seconds at flow rate of 10 ul/min on flow cell 2 in 1×HBSP buffer on anti-hFc immobilized chip. 100 nM IL2Rα-HIS tagged or IL2Rβ-HIS tagged was 2-fold serial diluted and injected onto both reference flow cell 1 and IL2 Fc fusion protein were captured at flow cell 2 for 150 seconds at flow rate of 30 ul/mins. 300 seconds wash was applied after the last injection. The assay was set up with 8 serial diluted concentration points in 96 well format. The kinetics data was analyzed with Biacore T200 evaluation software 3.0. The specific binding response unit was derived from subtraction of binding to reference flow cell 1 from target flow cell 2 (FIGS. 39A-39D).

[2] = biological target: T2, human IL2Rα Fc fusion protein; experiment: ELISA, receptor-Fc coated, anti-Flag HRP
Experimental: (§1) Briefly, 384 well plate was immobilized with human IL2Rα and IL2Rβ Fc fusion proteins at a final concentration of 2 ug/mL in 1×PBS in total volume of 25 uL per well. The plate was incubated overnight at 4 C and blocked with 80 uL of superblock per well for 1 hour. […] Each dilution was added to IL2Rα or IL2Rβ wells in parallel in duplicates. The IL2 mutant binding was detected by adding 25 uL of anti-Flag HRP diluted at 1:5000 in 1×PBST. In between each step, the plate was washed three times with 1×PBST using a plate washer. The plate was then developed with 25 uL of TMB substrate for five minutes and stopped by adding 25 ul of 2N sulfuric acid. The plate was read at OD450 nm Biotek plate reader and the EC50 was analyzed with Prism 8.1 software to generate EC50 values (FIG. 15A for IL2Rα, and FIG. 15B for IL2Rβ, summarized in Table 9).

[3] = biological target: T3, human IL2Rβ Fc fusion protein; experiment: ELISA, receptor-Fc coated, anti-Flag HRP
Experimental: as §1

human IL2Rβ [4] = biological target: T4, human IL2Rβ; experiment: SPR, receptor captured on Protein A chip, E. coli-produced IL2
Experimental: (§2) The assay was run with Biacore T200 control software version 2.0. For each cycle, 1 μg/mL of human IL2Rβ or IL2Rα was captured for 60 seconds at flow rate of 10 μL/min on flow cell 2 in 1×HBST buffer on Protein A sensor chip. Two-fold serial diluted HIS tag purified engineered IL2 mutant was injected onto both reference flow cell 1 and IL2Rβ or IL2Rα captured flow cell 2 for 150 seconds at flow rate of 30 μL/min followed by washing for 300 seconds. The flow cells were then regenerated with Glycine pH 2 for 40 seconds at a flow rate of 30 μL/mins. Eight concentration points from 0 to 100 nM were assayed for each IL2Rβ agonist clone 96-well plate format. The kinetics data was analyzed with Biacore T200 evaluation software 3000. The specific binding response unit was derived from subtraction of binding to reference flow cell 1 from target flow cell 2.

human IL2Rα [5] = biological target: T5, human IL2Rα; experiment: as above
Experimental: as §2

human IL2Rα [6] = biological target: T5, human IL2Rα; experiment: SPR, IL2Rα captured on Protein A chip, IL2 at 100 nM
Experimental: The binding kinetics of IL2Rα-reduced binding clones to IL2Rα was assessed utilizing SPR technology with a Biacore T200, software version 2.0. For each cycle, 1 ug/mL of human IL2Rα was captured for 60 seconds at a flow rate of 10 uL/min on flow cell 2 in 1×HBSP buffer on a Protein A sensor chip. 100 nM of each HIS and Flag tag purified IL2 mutant was injected onto both the reference flow cell 1 and IL2Rα captured flow cell 2 for 150 seconds at a flow rate of 30 uL/min followed by washing for 300 seconds. The flow cells were then regenerated with Glycine pH 2.0 for 60 seconds at a flow rate of 30 uL/min. A HBSP+ buffer was included with each sample as a baseline control. The assay was set up in a 96-well format. The kinetics data was analyzed with Biacore T200 evaluation software 3.0. The specific binding response unit was derived from subtraction of binding to reference flow cell 1 from IL2Rα flow cell 2 and subtraction of buffer control. […] Relative response (RU) was determined for each IL2Rα-reduced binding clone (FIG. 4, Table 3).

human IL2Rβ [7] = biological target: T4, human IL2Rβ; experiment: SPR, receptor captured on Protein A chip, mammalian-produced IL2
Experimental: as §2

human IL2Rα [8] = biological target: T5, human IL2Rα; experiment: as above
Experimental: as §2

human IL2Rα [9] = biological target: T5, human IL2Rα; experiment: IL2Rα binding ELISA with E. coli culture supernatant of the clone; hFc bar as control (Example 2)

Binder | RU (at 100 nM) (human IL2Rα [6]) [RU] | Relevant binding to WT IL2 (%) (human IL2Rα [6]) | binding result (human IL2Rα [9]) | also measured
B1 | – | – | – | Kd [1]: 5.79 nM; koff [1]: 0.00883 s⁻¹; kon [1]: 1.53e+06 M⁻¹ s⁻¹
B2 | 40.8 | 28.7 | – | EC50 [2]: 538 nM; EC50 [3]: 1.8 nM; Kd (human IL2Rβ [4]): 0.123 nM; koff (human IL2Rβ [4]): 0.00027 s⁻¹; kon (human IL2Rβ [4]): 2.18e+06 M⁻¹ s⁻¹; relative activity IL2Rβ (KD: fold) against WT IL2 (human IL2Rβ [4]): 35200 fold; Kd (human IL2Rα [5]): 21.4 nM; relative activity IL2Rα (KD: fold) against WT IL2 (human IL2Rα [5]): -2.3 fold; Kd (human IL2Rβ [7]): 0.145 nM; koff (human IL2Rβ [7]): 0.000376 s⁻¹; kon (human IL2Rβ [7]): 2.59e+06 M⁻¹ s⁻¹; relative activity IL2Rβ (KD: fold) against WT IL2 (human IL2Rβ [7]): 6970 fold; Kd (human IL2Rα [8]): 302 nM; relative activity IL2Rα (KD: fold) against WT IL2 (human IL2Rα [8]): -22.4 fold
B3 | 2.7 | 1.9 | no binding (tested: supernatant, concentration not given) | –
B4 | – | – | – | Kd (human IL2Rβ [4]): 0.62 nM; koff (human IL2Rβ [4]): 0.00189 s⁻¹; kon (human IL2Rβ [4]): 3.05e+06 M⁻¹ s⁻¹; relative activity IL2Rβ (KD: fold) against WT IL2 (human IL2Rβ [4]): 7010 fold; Kd (human IL2Rα [5]): 40.5 nM; relative activity IL2Rα (KD: fold) against WT IL2 (human IL2Rα [5]): -4.3 fold; Kd (human IL2Rβ [7]): 0.414 nM; koff (human IL2Rβ [7]): 0.00215 s⁻¹; kon (human IL2Rβ [7]): 5.18e+06 M⁻¹ s⁻¹; relative activity IL2Rβ (KD: fold) against WT IL2 (human IL2Rβ [7]): 2420 fold; Kd (human IL2Rα [8]): 28.8 nM; relative activity IL2Rα (KD: fold) against WT IL2 (human IL2Rα [8]): -2.1 fold
B5 | 2.5 | 1.76 | no binding (tested: supernatant, concentration not given) | –
B6 | 2.1 | 1.48 | no binding (tested: supernatant, concentration not given) | –
B7 | 2.4 | 1.69 | no binding (tested: supernatant, concentration not given) | –
B8 | 5.3 | 3.73 | no binding (tested: supernatant, concentration not given) | –
B9 | 2.4 | 1.69 | no binding (tested: supernatant, concentration not given) | –
B10 | 2.6 | 1.83 | no binding (tested: supernatant, concentration not given) | –
B11 | 2.6 | 1.83 | no binding (tested: supernatant, concentration not given) | –
B12 | 3 | 2.11 | no binding (tested: supernatant, concentration not given) | –
